In the supplement of paper PMC7125110:
± gives the standard error. For part of these data: Fewer inactive variants are shown than the library holds.

B1: glmS ribozyme (parent)
chain: AUAAAAGCGCCAGAACUACAGAAAUGUAGUUGACGAGGAGGAGGUUUAUCGAAUUUUCGGCGGAUGCCUCCAAA

Legend:
Settings in all cases: with glucosamine-6-phosphate
glucosamine-6-phosphate [1] = variants of: B1; experiment: kcat; higher = faster cleavage; RNA array
In short: (§1)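 Sequenced MiSeq chips were the platform: E. coli RNA polymerase transcribed barcoded ribozyme variants on them in situ, and a hybridised Cy3 probe tracked these at 37 °C. After glucosamine-6-phosphate (40 μM to 10 mM) in HEPES/KCl/Mg(OAc)2 buffer was flowed in, tiles were imaged over ~14 h. Signals normalised to baseline and to non-cleaving reference variants were reduced to per-tile medians and fit to one- or two-exponential decays to obtain kobs. kcat and KM were derived through weighted Michaelis–Menten fits across concentrations.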

glucosamine-6-phosphate [2] = variants of: B1; experiment: KM; higher = weaker cofactor use; RNA array
In short: as §1

glucosamine-6-phosphate [3] = variants of: B1; experiment: self-cleavage kobs at 40 uM GlcN6P; higher = faster cleavage; RNA array
In short: as §1

glucosamine-6-phosphate [4] = variants of: B1; experiment: self-cleavage kobs at 160 uM GlcN6P; higher = faster cleavage; RNA array
In short: as §1

glucosamine-6-phosphate [5] = variants of: B1; experiment: self-cleavage kobs at 640 uM GlcN6P; higher = faster cleavage; RNA array
In short: as §1

glucosamine-6-phosphate [6] = variants of: B1; experiment: self-cleavage kobs at 2500 uM GlcN6P; higher = faster cleavage; RNA array
In short: as §1

glucosamine-6-phosphate [7] = variants of: B1; experiment: self-cleavage kobs at 10000 uM GlcN6P; higher = faster cleavage; RNA array
In short: as §1

| Variant | kcat (glucosamine-6-phosphate [1]) [s⁻¹] | KM (glucosamine-6-phosphate [2]) [µM] | self-cleavage kobs at 40 uM GlcN6P (glucosamine-6-phosphate [3]) [s⁻¹] | self-cleavage kobs at 160 uM GlcN6P (glucosamine-6-phosphate [4]) [s⁻¹] | self-cleavage kobs at 640 uM GlcN6P (glucosamine-6-phosphate [5]) [s⁻¹] | self-cleavage kobs at 2500 uM GlcN6P (glucosamine-6-phosphate [6]) [s⁻¹] | self-cleavage kobs at 10000 uM GlcN6P (glucosamine-6-phosphate [7]) [s⁻¹] |
| --- | --- | --- | --- | --- | --- | --- | --- |
| C16A U56A | 0.0016 ± 0.00026 | 3180 ± 890 | 2.51e-05 ± 9.6e-06 | 9.31e-05 ± 3e-05 | 0.000261 ± 7.2e-05 | 0.000618 ± 0.00011 | 0.00131 ± 0.0002 |
| A14U G38A | < 1e-05 | – | – | – | – | – | < 1e-05 |
| A15C A39C | 0.00146 ± 0.00042 | 3400 ± 1700 | 2.08e-05 ± 6.5e-06 | 0.000119 ± 1.5e-05 | 0.000171 ± 2.6e-05 | 0.000622 ± 9.2e-05 | 0.00112 ± 8.5e-05 |
| G26U U65G | 0.00661 ± 0.0013 | 4570 ± 1200 | 6.93e-05 ± 3.2e-05 | 0.00028 ± 0.00012 | 0.000733 ± 0.00016 | 0.00291 ± 0.0011 | 0.00449 ± 0.001 |
| G29A G41C | 3.14e-05 ± 5.6e-06 | – | – | – | – | 2.97e-05 ± 1.2e-05 | – |
| A15U U45C | 0.000662 ± 6.5e-05 | 5870 ± 1000 | – | – | 6.91e-05 ± 1.5e-05 | 0.000187 ± 4.3e-05 | 0.000419 ± 4.9e-05 |
| A15U U45G | 0.000918 ± 0.00015 | 2150 ± 560 | – | 5.29e-05 ± 1e-05 | 0.000248 ± 3.2e-05 | 0.000552 ± 8.4e-05 | 0.000705 ± 9.6e-05 |
| A14U U31C | 0.00342 ± 0.00056 | 1450 ± 340 | 0.00012 ± 1.9e-05 | 0.000327 ± 3.9e-05 | 0.000956 ± 0.00011 | 0.00229 ± 0.00027 | 0.00303 ± 0.0006 |
| G29U C67U | 0.000984 ± 0.0002 | 1050 ± 320 | 4.55e-05 ± 8.7e-06 | 0.000126 ± 1.3e-05 | 0.000384 ± 5.4e-05 | 0.000575 ± 8.5e-05 | 0.0012 ± 0.00018 |
| G29U G32A | 0.00151 ± 0.00013 | 2210 ± 350 | 3.81e-05 ± 1.5e-05 | 0.000105 ± 2.4e-05 | 0.000328 ± 6.3e-05 | 0.000738 ± 0.00012 | 0.00128 ± 0.00016 |
| A15U C71G | 0.000329 ± 9.4e-05 | – | – | 4.2e-05 ± 8.4e-06 | 9.25e-05 ± 9.6e-06 | 0.000157 ± 2.3e-05 | 0.000359 ± 4.3e-05 |
| C16G A64C | 2.1e-05 ± 1.7e-06 | 9060 ± 1500 | – | – | – | – | – |
| G29C A39G | 0.00594 ± 0.0022 | – | 0.000107 ± 1.2e-05 | 0.000305 ± 6.8e-05 | 0.000768 ± 0.00012 | 0.00223 ± 0.00037 | 0.00525 ± 0.00064 |
| C16U U57C | 0.000329 ± 0.00013 | – | – | – | 5.65e-05 ± 1.1e-05 | 8.73e-05 ± 1.7e-05 | 0.00024 ± 3.4e-05 |
| A14U U31G A39C | 0.000999 ± 0.00027 | 4360 ± 1700 | – | 5.41e-05 ± 2e-05 | 0.000117 ± 2.6e-05 | 0.000373 ± 9.9e-05 | 0.000701 ± 0.00017 |
| A15C C16A C68G | 2.65e-05 ± 7.2e-06 | – | – | – | – | 2.94e-05 ± 1.3e-05 | – |

| Variant | kcat (glucosamine-6-phosphate [1]) [s⁻¹] | KM (glucosamine-6-phosphate [2]) [µM] | self-cleavage kobs at 40 uM GlcN6P (glucosamine-6-phosphate [3]) [s⁻¹] | self-cleavage kobs at 160 uM GlcN6P (glucosamine-6-phosphate [4]) [s⁻¹] | self-cleavage kobs at 640 uM GlcN6P (glucosamine-6-phosphate [5]) [s⁻¹] | self-cleavage kobs at 2500 uM GlcN6P (glucosamine-6-phosphate [6]) [s⁻¹] | self-cleavage kobs at 10000 uM GlcN6P (glucosamine-6-phosphate [7]) [s⁻¹] |
| --- | --- | --- | --- | --- | --- | --- | --- |
| C16A U30C | 2.39e-05 ± 3.2e-06 | – | – | – | – | 2.62e-05 ± 9e-06 | 2.12e-05 ± 8.1e-06 |
| A14U C58A | 0.000695 ± 4.9e-05 | 2220 ± 300 | – | 5.03e-05 ± 1.2e-05 | 0.000162 ± 3.2e-05 | 0.000346 ± 4.3e-05 | 0.000594 ± 7.5e-05 |
| C16G U30C | 0.000111 ± 8.3e-06 | 763 ± 200 | – | – | 5.29e-05 ± 9.6e-06 | 7.58e-05 ± 1.2e-05 | 0.000109 ± 1.3e-05 |
| C16A G66C | 6.9e-05 ± 1.7e-05 | – | < 1e-05 | – | – | – | 2.41e-05 ± 1.1e-05 |
| C16A G66A | 0.00167 ± 9.1e-05 | 4130 ± 370 | – | 6.8e-05 ± 3.1e-05 | 0.000223 ± 5e-05 | 0.000633 ± 0.00013 | 0.00118 ± 0.00018 |
| C16G U46G | 0.000671 ± 0.00023 | – | – | 5.87e-05 ± 2.1e-05 | 0.000167 ± 4e-05 | 0.000703 ± 0.00022 | 0.000514 ± 0.00016 |
| A15U G29A | 0.00194 ± 0.00084 | – | – | 7.32e-05 ± 1.6e-05 | 0.000218 ± 4.3e-05 | 0.00039 ± 0.0001 | 0.00142 ± 0.0002 |
| G29U C67A U69A | 7.55e-05 ± 1.2e-05 | – | – | – | 5.78e-05 ± 2.8e-05 | 0.000106 ± 2.6e-05 | 6.88e-05 ± 1.3e-05 |
| C16A C50A | < 1e-05 | – | – | – | – | – | – |
| G29C U65A | 0.000197 ± 2.5e-05 | 2100 ± 780 | – | – | 3.62e-05 ± 1.2e-05 | 0.00013 ± 1.8e-05 | 0.000157 ± 1.5e-05 |
| G29A U30A | 0.00133 ± 0.00052 | – | 2.98e-05 ± 1.5e-05 | 5.7e-05 ± 2e-05 | 0.000149 ± 2.4e-05 | 0.000752 ± 0.00014 | 0.000862 ± 0.00016 |
| G29A U30C | 3.24e-05 ± 8.4e-06 | – | – | – | – | 4.91e-05 ± 1.5e-05 | 2.58e-05 ± 1e-05 |
| A14U G29U | 0.000435 ± 4.6e-05 | 2040 ± 400 | 2.02e-05 ± 9.5e-06 | 3.57e-05 ± 7.2e-06 | 0.000104 ± 9.7e-06 | 0.000222 ± 2e-05 | 0.000381 ± 3.2e-05 |
| C16A G32U | 0.000568 ± 9.6e-05 | 6390 ± 1500 | – | – | 5.63e-05 ± 1e-05 | 0.000143 ± 2.8e-05 | 0.000363 ± 6.7e-05 |
| A14U U65C | 8.95e-05 ± 1.3e-05 | – | – | – | 3.59e-05 ± 8.9e-06 | 9.87e-05 ± 1.3e-05 | 7.83e-05 ± 7.7e-06 |
